Source: doi:10.1101/2023.12.05.570295

Target: mKate2-K67R/R197H, named Diogenes

OSER assay in live HeLa cells (CytERM fusion): whorl-free cells: 87%
Substance: mKate2-K67R/R197H, named Diogenes
